According to patent publication US20240294593A1 (Genentech, published 2024):

Experiments:
human PD-1-His [1] = molecular target: T1, human PD-1-His (human, UniProt Q15116 25-167, limits assumed); experiment: Octet (BLI), AHC capture of the bivalent mAb, PD-1 in solution
T1 construct: Antigen of the Octet assays; not shown: His tag

human PD-1-His [2] = molecular target: T1, human PD-1-His; experiment: Octet (BLI), AHC biosensors capture the bivalent mAb, dipped into multiple concentrations of PD-1; KDapp per legend
human PD-1-His [3] = molecular target: T1, human PD-1-His; experiment: Octet

T1 sequence (Q15116 25-167 limits assumed): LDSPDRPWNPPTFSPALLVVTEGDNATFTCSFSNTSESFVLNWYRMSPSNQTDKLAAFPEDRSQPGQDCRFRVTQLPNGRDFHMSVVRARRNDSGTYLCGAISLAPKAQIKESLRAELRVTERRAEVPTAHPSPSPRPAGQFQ

Binder	koff (human PD-1-His [1])	kon (human PD-1-His [1])	Kd (human PD-1-His [2])	Kd (human PD-1-His [3])	koff (human PD-1-His [3])	kon (human PD-1-His [3])
H1.210_L1.1 (XENP32826) (antibody, human IgG1, kappa, V domains shown, VH substitution R109W/L110H/W112F (Xencor #); R97W/L98H/W100F (Kabat); also called mAb C[PD1]_H1.210_L1.1_IgG1_PVA_/S267K) VH: EVQLVESGGGLVQPGGSLRLSCAASGFTFSSFGMHWVRQAPGKGLEWVSYISSGSSIIYYADSVKGRFTISRDNAKNSLYLQMNSLRAEDTAVYYCARGGWHVFSPDYWGQGTLVTVSS VL: DIVMTQSPDSLAVSLGERATINCKSSQSLLHSGNQKNYLTWYQQKPGQPPKLLIYWASTRESGVPDRFTGSGSGTDFTLTISSLQAEDVAVYYCQNDYSYPFTFGSGTKLEIKR	0.00244 s⁻¹	154000 M⁻¹ s⁻¹	15.9 nM	–	–	–
H1.211_L1.1 (XENP32827) (antibody, human IgG1, kappa, V domains shown, VH substitution W112F/S113A (Xencor #); W100F/S100aA (Kabat); also called mAb C[PD1]_H1.211_L1.1_IgG1_PVA_/S267K) VH: EVQLVESGGGLVQPGGSLRLSCAASGFTFSSFGMHWVRQAPGKGLEWVSYISSGSSIIYYADSVKGRFTISRDNAKNSLYLQMNSLRAEDTAVYYCARGGRLVFAPDYWGQGTLVTVSS VL: DIVMTQSPDSLAVSLGERATINCKSSQSLLHSGNQKNYLTWYQQKPGQPPKLLIYWASTRESGVPDRFTGSGSGTDFTLTISSLQAEDVAVYYCQNDYSYPFTFGSGTKLEIKR	0.00252 s⁻¹	133000 M⁻¹ s⁻¹	19 nM	–	–	–
H1.212_L1.1 (XENP32828) (antibody, human IgG1, kappa, V domains shown, VH substitution R109T/L110K/W112F (Xencor #); R97T/L98K/W100F (Kabat); also called mAb C[PD1]_H1.212_L1.1_IgG1_PVA_/S267K) VH: EVQLVESGGGLVQPGGSLRLSCAASGFTFSSFGMHWVRQAPGKGLEWVSYISSGSSIIYYADSVKGRFTISRDNAKNSLYLQMNSLRAEDTAVYYCARGGTKVFSPDYWGQGTLVTVSS VL: DIVMTQSPDSLAVSLGERATINCKSSQSLLHSGNQKNYLTWYQQKPGQPPKLLIYWASTRESGVPDRFTGSGSGTDFTLTISSLQAEDVAVYYCQNDYSYPFTFGSGTKLEIKR	0.00469 s⁻¹	152000 M⁻¹ s⁻¹	30.8 nM	–	–	–
H1_L1.127 (antibody, V domains shown, also called VL-Y100H; Kabat 94) VH: EVQLVESGGGLVQPGGSLRLSCAASGFTFSSFGMHWVRQAPGKGLEWVSYISSGSSIIYYADSVKGRFTISRDNAKNSLYLQMNSLRAEDTAVYYCARGGRLVWSPDYWGQGTLVTVSS VL: DIVMTQSPDSLAVSLGERATINCKSSQSLLNSGNQKNYLTWYQQKPGQPPKLLIYWASTRESGVPDRFTGSGSGTDFTLTISSLQAEDVAVYYCQNDYSHPFTFGSGTKLEIKR	–	–	–	55.5 nM	0.00741 s⁻¹	133000 M⁻¹ s⁻¹
H1_L1.128 (antibody, V domains shown, also called VL-Y100L; Kabat 94) VH: EVQLVESGGGLVQPGGSLRLSCAASGFTFSSFGMHWVRQAPGKGLEWVSYISSGSSIIYYADSVKGRFTISRDNAKNSLYLQMNSLRAEDTAVYYCARGGRLVWSPDYWGQGTLVTVSS VL: DIVMTQSPDSLAVSLGERATINCKSSQSLLNSGNQKNYLTWYQQKPGQPPKLLIYWASTRESGVPDRFTGSGSGTDFTLTISSLQAEDVAVYYCQNDYSLPFTFGSGTKLEIKR	–	–	–	186 nM	0.0911 s⁻¹	490000 M⁻¹ s⁻¹
H1_L1.129 (antibody, human IgG1, kappa, V domains shown, also called VL-Y100W; Kabat 94) VH: EVQLVESGGGLVQPGGSLRLSCAASGFTFSSFGMHWVRQAPGKGLEWVSYISSGSSIIYYADSVKGRFTISRDNAKNSLYLQMNSLRAEDTAVYYCARGGRLVWSPDYWGQGTLVTVSS VL: DIVMTQSPDSLAVSLGERATINCKSSQSLLNSGNQKNYLTWYQQKPGQPPKLLIYWASTRESGVPDRFTGSGSGTDFTLTISSLQAEDVAVYYCQNDYSWPFTFGSGTKLEIKR	–	–	–	9.44 nM	0.001 s⁻¹	106000 M⁻¹ s⁻¹
H1_L1.132 (antibody, V domains shown, also called VL-Y100Q; Kabat 94) VH: EVQLVESGGGLVQPGGSLRLSCAASGFTFSSFGMHWVRQAPGKGLEWVSYISSGSSIIYYADSVKGRFTISRDNAKNSLYLQMNSLRAEDTAVYYCARGGRLVWSPDYWGQGTLVTVSS VL: DIVMTQSPDSLAVSLGERATINCKSSQSLLNSGNQKNYLTWYQQKPGQPPKLLIYWASTRESGVPDRFTGSGSGTDFTLTISSLQAEDVAVYYCQNDYSQPFTFGSGTKLEIKR	–	–	–	37 nM	0.00615 s⁻¹	166000 M⁻¹ s⁻¹
H1_L1.133 (antibody, V domains shown, also called VL-Y100D; Kabat 94) VH: EVQLVESGGGLVQPGGSLRLSCAASGFTFSSFGMHWVRQAPGKGLEWVSYISSGSSIIYYADSVKGRFTISRDNAKNSLYLQMNSLRAEDTAVYYCARGGRLVWSPDYWGQGTLVTVSS VL: DIVMTQSPDSLAVSLGERATINCKSSQSLLNSGNQKNYLTWYQQKPGQPPKLLIYWASTRESGVPDRFTGSGSGTDFTLTISSLQAEDVAVYYCQNDYSDPFTFGSGTKLEIKR	–	–	–	405 nM	0.0264 s⁻¹	65100 M⁻¹ s⁻¹
